Literature values in paper PMC6214620.

Tested on: Lys53
Conditions: ferric; His-Fe-Lys converting to a water-bound, lysine-deligated state

**Q.** Which pKa does the source give for “Truncated hemoglobin THB1 (Chlamydomonas reinhardtii)” here?
**A.** Its pKa is ~ 6.5.
